Changes are numbered by the printed parent chain.
B1: PRO1476 (other)
chain: DIQMTQSPSSLSASVGDRVTITCQASQSINNVLAWYQQKPGKAPKLLIYRASTLASGVPSRFSGSGSGTDFTLTISSLQPEDFATYYCQSSYGNYGDFGCGTKVTVLGGGGGSQSQLQESGPGLVKPSETLSLTCKASGFSFSSGYDMCWVRQPPGKGLEWIACVVAGSVDITYYASWAKGRVTISKDSSKNQVSLKLSSVTAADTAVYFCARKDAYSDAFNLWGQGTLVTVSSGGGGSGGGGSGGGGSGGGGSFQLTQSPSSLSASVGDRVTITCQASQSINDYLAWYQQKPGKSPKLLIYKASTLASGVPSRFSGSGSGTDFTLTISSLQPEDFATYYCQQGYIITDIDNVFGTGTKVTVLGGGGGSEVQLVESGGGLVQPGGSLRLSCAASGFSFSNSYWICWVRQAPGKCLEWIGCTFVGSSDSTYYANWAKGRFTISRDNSKNTVYLQMNSLRAEDTAVYYCARHPSDAVYGYANNLWGQGTLVTVSSGGGGSGGGGSIQMTQSPSSLSASVGDRVTITCQSSESVYSNNQLSWYQQKPGQPPKLLIYDASDLASGVPSRFSGSGSGTDFTLTISSLQPEDFATYYCAGGFSSSSDTAFGGGTKLTVLGGGGGSGGGGSGGGGSGGGGSEVQLVESGGGLVQPGGSLRLSCAASGFSLSSNAMGWVRQAPGKGLEYIGIISVGGFTYYASWAKGRFTISRDNSKNTVYLQMNSLRAEDTATYFCARDRHGGDSSGAFYLWGQGTLVTVSS
notes: trispecific scDb-scFv; also called 33-03-G02 sc03 scDb-i/38-02-A04 sc13 scDb-o/19-01-H04 sc03 scFv
B2: PRO1432 (other)
chain: B1 chain with S115V, F210Y, F255I, L257M, S296A
notes: trispecific scDb-scFv; also called 33-03-G02 sc18 scDb-i/38-02-A04 sc13 scDb-o/19-01-H04 sc03 scFv
B3: PRO1431 (other)
chain: DIQMTQSPSSLSASVGDRVTITCQASQSINDYLAWYQQKPGKAPKLLIYKASTLASGVPSRFSGSGSGTDFTLTISSLQPEDFATYYCQQGYIITDIDNVFGTGTKVTVLGGGGGSEVQLVESGGGLVQPGGSLRLSCAASGFSFSNSYWICWVRQAPGKCLEWIGCTFVGSSDSTYYANWAKGRFTISRDNSKNTVYLQMNSLRAEDTAVYYCARHPSDAVYGYANNLWGQGTLVTVSSGGGGSGGGGSGGGGSGGGGSIQMTQSPSSLSASVGDRVTITCQASQSINNVLAWYQQKPGKAPKLLIYRASTLASGVPSRFSGSGSGTDFTLTISSLQPEDFATYYCQSSYGNYGDFGCGTKVTVLGGGGGSQVQLQESGPGLVKPSETLSLTCKASGFSFSSGYDMCWVRQPPGKGLEWIACVVAGSVDITYYASWAKGRVTISKDSSKNQVSLKLSSVTAADTAVYYCARKDAYSDAFNLWGQGTLVTVSSGGGGSGGGGSIQMTQSPSSLSASVGDRVTITCQSSESVYSNNQLSWYQQKPGQPPKLLIYDASDLASGVPSRFSGSGSGTDFTLTISSLQPEDFATYYCAGGFSSSSDTAFGGGTKLTVLGGGGGSGGGGSGGGGSGGGGSEVQLVESGGGLVQPGGSLRLSCAASGFSLSSNAMGWVRQAPGKGLEYIGIISVGGFTYYASWAKGRFTISRDNSKNTVYLQMNSLRAEDTATYFCARDRHGGDSSGAFYLWGQGTLVTVSS
notes: trispecific scDb-scFv; also called 38-02-A04 sc13 scDb-i/33-03-G02 sc18 scDb-o/19-01-H04 sc03 scFv
B4: PRO1473 (other)
chain: B3 chain with I2F, M4L, A43S, V374S, Y469F
notes: trispecific scDb-scFv; also called 38-02-A04 sc13 scDb-i/33-03-G02 sc03 scDb-o/19-01-H04 sc03 scFv

target: T1, Fc tagged human CD137 (human, UniProt Q07011 24-186); experiment: SPR
T1 construct: also called CD137-Fc chimeric protein
Description: (§1) Affinity to PDL1 of the different species was determined by SPR measurements using a Biacore T200 device (GE Healthcare). An antibody specific for the Fc region of human IgGs was immobilized on a sensor chip (CM5 sensor chip, GE Healthcare) by amine-coupling. For all formats, with the exception of the Fc containing Morrison formats, PDL1-Fc chimeric protein from different species were captured by the immobilized antibody.
(§2) Three-fold serial dilutions of the molecules specific for PDL1 (0.12-90 nM) were injected into the flow cells for three minutes and dissociation was monitored for 10 minutes. After each injection cycle, surfaces were regenerated with one injection of a 3 M MgCl₂ solution. The apparent dissociation (kd) and association (kₐ) rate constants and the apparent dissociation equilibrium constant (KD) were calculated using one-to-one Langmuir binding model. Affinity to CD137 of the different species was determined using the identical setup as for PDL1 with the exception that CD137-Fc chimeric protein from different species were captured by the immobilized antibody.

| Binder | Kd | koff | kon |
| --- | --- | --- | --- |
| B1 | 1.1 nM | 0.00037 s⁻¹ | 350000 M⁻¹ s⁻¹ |
| B2 | 0.75 nM | 0.00045 s⁻¹ | 600000 M⁻¹ s⁻¹ |
| B3 | 1.7 nM | 0.00075 s⁻¹ | 450000 M⁻¹ s⁻¹ |
| B4 | 2 nM | 0.0006 s⁻¹ | 310000 M⁻¹ s⁻¹ |

target: T2, Fc tagged human PDL1 (human, UniProt Q9NZQ7 19-239); experiment: SPR
T2 construct: Bought (Sino Biological, cat. 10084-H02H); captured on the SPR chip; also called PDL1-Fc chimeric protein
Description: as §1, §2

| Binder | Kd | koff | kon |
| --- | --- | --- | --- |
| B1 | 0.009 nM | 3.1e-05 s⁻¹ |  |
| B2 |  | 4.4e-05 s⁻¹ | 4.2e+06 M⁻¹ s⁻¹ |
| B3 |  | 4.5e-05 s⁻¹ |  |
| B4 | 0.0082 nM | 2.9e-05 s⁻¹ | 3.6e+06 M⁻¹ s⁻¹ |

target: T3, biotinylated human PDL1 (human, UniProt Q9NZQ7 19-238, limits assumed, biotinylated); experiment: competition ELISA B7.1/PDL1
T3 construct: also called biotinylated PDL1
Description: Plates were blocked for 1 hour at room temperature by adding 300 μl of PBS with 1% BSA and 0.2% tween (dilution buffer) to each well. […] The mixtures were pre-incubated for 1 hour at room temperature under gentle agitation on a rotating mixer (21 rpm) and added to the microplates after 3 wash cycles with 450 μl wash buffer per well. Plates were incubated for 1.5 hours at room temperature under gentle agitation, then 10 ng/ml streptavidin-polyHRP40 was added to each microplate well after three washes with 450 μl of wash buffer per well. After 1 h incubation at RT, plates were washed three times with 450 μl wash buffer and TMB substrate solution was added. The enzymatic reaction was stopped after 6 minutes by addition of 1 M HCl and absorbance was measured at 450 nm using 690 nm as a reference wavelength. For calculation of IC₅₀ values, a four-parameter logistic (4PL) curve fit was performed in Graph Pad Prism using reference subtracted values.

| Binder | IC50 | rel. IC50 (IC50 avelumab/IC50 test) |
| --- | --- | --- |
| B1 | 9.49 ng/mL | 1.1 fold |
| B2 | 2.83 ng/mL | 0.99 fold |
| B3 | 3.31 ng/mL | 0.84 fold |
| B4 | 8.89 ng/mL | 1.49 fold |

target: T3, biotinylated human PDL1; experiment: competition ELISA PD-1/PDL1
Description: Plates were blocked for 1 hour at room temperature by adding 300 μl of PBS with i%BSA and 0.2% tween (dilution buffer) to each well. Inhibitors were serially diluted in 3-fold steps to final concentrations ranging from 300 to 0.005 ng/ml in dilution buffer containing 1 ng/ml biotinylated human PDL1. The mixtures were pre-incubated for 1 hour at room temperature under gentle agitation on a rotating mixer (21 rpm) and added to the microplates after 3 wash cycles with 450 μl wash buffer per well. Plates were incubated for 1.5 hours at room temperature under gentle agitation, then 10 ng/ml streptavidin-polyHRP40 was added to each microplate well after three washes with 450 μl of wash buffer per well. After 1 h incubation at RT, plates were washed three times with 450 μl wash buffer and TMB substrate solution was added. The enzymatic reaction was stopped after 6 minutes by addition of 1 M HCl and absorbance was measured at 450 nm using 690 nm as a reference wavelength. For calculation of IC₅₀ values, a four-parameter logistic (4PL) curve fit was performed in Graph Pad Prism using reference subtracted values.

| Binder | IC50 | rel. IC50 (IC50 avelumab/IC50 test) |
| --- | --- | --- |
| B1 | 2.84 ng/mL | 0.8 fold |
| B2 | 3.26 ng/mL | 0.43 fold |
| B3 | 2.75 ng/mL | 0.51 fold |
| B4 | 4.14 ng/mL | 0.56 fold |

target: T4, CD137 on Jurkat NFkB reporter cells (human, UniProt Q07011 24-255); experiment: cell-based or functional assay

| Binder | IC50 (ng/ml) (EC50 in Table 16C), NFkB reporter, HCC827 + IFNg, 24 h, +HSA | rel. IC50 (PRO1186/test), 24 h |
| --- | --- | --- |
| B1 | 3.9 ng/mL | 1.83 fold |
| B2 | 21.9 ng/mL | 0.75 fold |
| B3 | 18.4 ng/mL | 1.02 fold |
| B4 | 0.91 ng/mL | 3.55 fold |

target: T4, CD137 on Jurkat NFkB reporter cells; experiment: cell-based or functional assay; remark: another data set of the same source

| Binder | Area under the curve (calculated using PRO885 normalized data), first line (6 h by the order of the upper part) | Area under the curve (calculated using PRO885 normalized data), second line (24 h by the order of the upper part) | EC50 [ng/ml], NF-kB reporter, HCC827 + IFNg, +HSA, 6 h | IC10/EC90 ratio, first line (6 h by the order of the upper part) | IC10/EC90 ratio, second line (24 h by the order of the upper part) | Maximum NF-kB activation (rel. to PRO1186) [%], first line (6 h by the order of the upper part) | Maximum NF-kB activation (rel. to PRO1186) [%], second line (24 h by the order of the upper part) | rel. Area under the curve (AUCsample/AUCPRO1186), first line (6 h by the order of the upper part) | rel. Area under the curve (AUCsample/AUCPRO1186), second line (24 h by the order of the upper part) | rel. EC50 (EC50, PRO1186/EC50, sample), NF-kB reporter, 6 h |
| --- | --- | --- | --- | --- | --- | --- | --- | --- | --- | --- |
| B1 | 93.5 | 135 | 5.97 ng/mL | 34.2 | 35.7 | 36.4% | 76.1% | 0.39 fold | 0.59 fold | 2.02 fold |
| B2 | 111 | 150 | 19.4 ng/mL | 26.8 | 3.57 | 63.4% | 83.8% | 0.59 fold | 0.81 fold | 0.67 fold |
| B3 | 83.2 | 119 | 21 ng/mL | 5.03 | 16.1 | 55.3% | 68.6% | 0.4 fold | 0.54 fold | 0.68 fold |
| B4 | 52.3 | 188 | 2.4 ng/mL | 53.9 | 15.7 | 36.2% | 67.4% | 0.31 fold | 0.73 fold | 2.3 fold |

same assay, conditions: not given

| Binder | rel. EC50 (EC50, PRO1186/EC50, sample), NF-kB reporter, 24 h | rel. IC10/EC90 (ratio of sample/ratio of PRO1186), first line (6 h by the order of the upper part) | rel. IC10/EC90 (ratio of sample/ratio of PRO1186), second line (24 h by the order of the upper part) |
| --- | --- | --- | --- |
| B1 | 1.83 fold | 2.66 fold | 1.63 fold |
| B2 | 0.75 fold | 0.36 fold | 0.16 fold |
| B3 | 1.02 fold | 0.3 fold | 1.74 fold |
| B4 | 3.55 fold | 1.01 fold | 0.12 fold |

target: human PDL1 on cells (human, UniProt Q9NZQ7 19-290); experiment: cell-based or functional assay

| Binder | IC50 (ng/ml), NF-AT potency assay, +HSA | rel. IC50 (avelumab/test), +HSA |
| --- | --- | --- |
| B1 | 53.5 ng/mL | 0.66 fold |
| B2 | 18.5 ng/mL | 1.98 fold |
| B3 | 9.83 ng/mL | 3.73 fold |
| B4 | 35.2 ng/mL | 1.11 fold |
